Laboratory results reported in patent US20110200585A1.

Key:
Cyno FcRn (cyno) = Cyno FcRn (cyno) (UniProt Q8SPV9); experiment: SPR, ProteOn XPR36; antibody amine-coupled to GLM chip, FcRn 8-2048 nM as analyte, equilibrium fit, pH 6.0
Human FcRn (human) = Human FcRn (human) (UniProt P55899); experiment: as above
Mouse FcRn (mouse) = Mouse FcRn (mouse) (UniProt Q61559); experiment: as above
rat FcRn (rat) = rat FcRn (rat) (UniProt P13599); experiment: as above
Fcγ (Val) = Fcγ (Val) (UniProt P08637); experiment: SPR, ProteOn XPR36; antibody amine-coupled to GLM chip, receptor 8-2048 nM as analyte, equilibrium fit, pH 7.4
Sequence of Fcγ (Val) (P08637 17-208 F176V): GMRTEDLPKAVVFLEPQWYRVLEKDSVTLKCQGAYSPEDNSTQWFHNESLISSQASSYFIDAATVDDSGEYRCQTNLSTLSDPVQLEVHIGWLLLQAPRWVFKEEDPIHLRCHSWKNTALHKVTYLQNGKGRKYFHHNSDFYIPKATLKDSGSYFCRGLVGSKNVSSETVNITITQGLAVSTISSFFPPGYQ

Fcγ1 = Fcγ1 (UniProt P12314); experiment: as above
Sequence of Fcγ1 (P12314 16-288): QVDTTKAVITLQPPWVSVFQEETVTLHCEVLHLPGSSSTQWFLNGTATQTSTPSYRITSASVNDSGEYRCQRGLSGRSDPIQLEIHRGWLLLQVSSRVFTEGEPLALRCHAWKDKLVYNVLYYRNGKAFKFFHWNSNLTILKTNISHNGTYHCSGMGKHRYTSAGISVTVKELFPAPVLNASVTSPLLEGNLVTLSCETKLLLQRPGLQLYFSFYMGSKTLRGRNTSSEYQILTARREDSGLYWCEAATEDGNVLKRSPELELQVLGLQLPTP

Fcγ2a (Arg) = Fcγ2a (Arg) (UniProt P12318); experiment: as above
Sequence of Fcγ2a (Arg) (P12318 34-217 H167R): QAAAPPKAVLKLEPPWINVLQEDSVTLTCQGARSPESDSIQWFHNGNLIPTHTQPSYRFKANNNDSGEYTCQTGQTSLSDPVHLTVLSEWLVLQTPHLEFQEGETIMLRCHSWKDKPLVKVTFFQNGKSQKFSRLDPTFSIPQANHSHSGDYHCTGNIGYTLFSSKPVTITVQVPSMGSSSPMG

Fcγ3a (Phe) = Fcγ3a (Phe) (UniProt P08637); experiment: as above
Sequence of Fcγ3a (Phe) (P08637 17-208): as the sequence (P08637 17-208 F176V) above, with V160F counted along it

Sequence of rat FcRn (rat) (P13599 23-298 limits assumed, form in doubt, chain 1 of 2): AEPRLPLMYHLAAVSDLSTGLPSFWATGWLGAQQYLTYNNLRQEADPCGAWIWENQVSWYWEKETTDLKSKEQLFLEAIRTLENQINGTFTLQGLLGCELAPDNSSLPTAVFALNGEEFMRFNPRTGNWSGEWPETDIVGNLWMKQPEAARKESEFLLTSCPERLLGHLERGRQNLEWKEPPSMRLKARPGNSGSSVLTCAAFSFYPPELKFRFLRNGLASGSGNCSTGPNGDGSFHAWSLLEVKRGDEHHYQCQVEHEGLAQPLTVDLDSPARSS
Sequence of rat FcRn (rat) (chain, as listed by the source limits assumed, form in doubt, chain 2 of 2): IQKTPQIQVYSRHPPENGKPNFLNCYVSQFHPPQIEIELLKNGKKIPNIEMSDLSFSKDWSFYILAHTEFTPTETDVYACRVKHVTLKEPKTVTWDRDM

| Kd (Cyno FcRn (cyno)) | Kd (Human FcRn (human)) | Kd (Mouse FcRn (mouse)) | Kd (rat FcRn (rat)) | Kd (Fcγ (Val)) | Kd (Fcγ1) | Kd (Fcγ2a (Arg)) | Kd (Fcγ3a (Phe)) | Substance |
| --- | --- | --- | --- | --- | --- | --- | --- | --- |
| 156 nM | 95 nM | 160 nM | 112 nM | 442 nM | 14.9 nM | 1290 nM | 1840 nM | Control Ab (Fc WT) (antibody) |
| 195 nM | 154 nM | 171 nM | 118 nM | – | – | – | – | Control Ab (Fc disabled) (antibody) |
